Assays:
[1] = target: T1, F119L phosphomannomutase2 (human) (UniProt O15305)
T1 sequence: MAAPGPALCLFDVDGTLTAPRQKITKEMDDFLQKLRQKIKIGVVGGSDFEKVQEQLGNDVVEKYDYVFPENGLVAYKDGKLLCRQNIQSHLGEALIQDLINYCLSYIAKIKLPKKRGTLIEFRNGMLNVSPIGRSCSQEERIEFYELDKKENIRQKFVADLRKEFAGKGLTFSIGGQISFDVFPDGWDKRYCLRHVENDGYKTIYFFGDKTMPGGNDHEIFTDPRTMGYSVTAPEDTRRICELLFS

[2] = target: the molecule itself; test: SEC; analytical, BioSep-SEC-S3000 column, Hepes 20 mM pH 7.5, NaCl 150 mM, MgCl2 5 mM, room temperature, 0.5 ml/min; wt-PMM2 10 μg, F119L 7 μg, or mixture of 5 μg wt-PMM2 and 3.5 μg F119L

Binder | corrected specific phosphoglucomutase activity (per amount of F119L) of Superdex75 fractions, F119L:R141H 1:1 to 1:3.5, compared with F119L alone; 5 μM Glc-1,6-P2 and 40 μM Glc-1P [1] | binding result [2]
R141H phosphomannomutase2 (enzyme) MAAPGPALCLFDVDGTLTAPRQKITKEMDDFLQKLRQKIKIGVVGGSDFEKVQEQLGNDVVEKYDYVFPENGLVAYKDGKLLCRQNIQSHLGEALIQDLINYCLSYIAKIKLPKKRGTFIEFRNGMLNVSPIGRSCSQEEHIEFYELDKKENIRQKFVADLRKEFAGKGLTFSIGGQISFDVFPDGWDKRYCLRHVENDGYKTIYFFGDKTMPGGNDHEIFTDPRTMGYSVTAPEDTRRICELLFS | 3 fold | 
F119L phosphomannomutase2 (enzyme, human, UniProt O15305-1 1-246, looked up, Phosphomannomutase2 (PMM2), human, pathological variant p.Phe119Leu (rs80338701); also called hypomorphic mutant) MAAPGPALCLFDVDGTLTAPRQKITKEMDDFLQKLRQKIKIGVVGGSDFEKVQEQLGNDVVEKYDYVFPENGLVAYKDGKLLCRQNIQSHLGEALIQDLINYCLSYIAKIKLPKKRGTLIEFRNGMLNVSPIGRSCSQEERIEFYELDKKENIRQKFVADLRKEFAGKGLTFSIGGQISFDVFPDGWDKRYCLRHVENDGYKTIYFFGDKTMPGGNDHEIFTDPRTMGYSVTAPEDTRRICELLFS |  | binds
wild type phosphomannomutase2 (enzyme, human, UniProt O15305-1 1-246, looked up, Phosphomannomutase2 (PMM2), human, UniProt entry name PMM2_HUMAN; also called wt-PMM2; PMM2) MAAPGPALCLFDVDGTLTAPRQKITKEMDDFLQKLRQKIKIGVVGGSDFEKVQEQLGNDVVEKYDYVFPENGLVAYKDGKLLCRQNIQSHLGEALIQDLINYCLSYIAKIKLPKKRGTFIEFRNGMLNVSPIGRSCSQEERIEFYELDKKENIRQKFVADLRKEFAGKGLTFSIGGQISFDVFPDGWDKRYCLRHVENDGYKTIYFFGDKTMPGGNDHEIFTDPRTMGYSVTAPEDTRRICELLFS |  | binds

Source: publication PMC4619449, “Heterodimerization of Two Pathological Mutants Enhances the Activity of Human Phosphomannomutase2” (PLoS ONE, 2015)
